Measurements taken from paper PMC5078793, “ADAMTS-10 and -6 differentially regulate cell-cell junctions and focal adhesions” (Scientific Reports, 2016).
Values belong to the binder of their own block, whether it stands above or below them.

Legend:
[1] = target: T1, ADAMTS6 C-terminal region (human, UniProt Q9UKP5-1 558-1117); test: SPR; Biacore; syndecan-4 ectodomain immobilised, ADAMTS C-terminal regions injected; 10 mM HEPES pH 7.4, 0.1 M NaCl, 0.5 mM CaCl2, 0.005% P20; details: both partners purified
T1 construct: human ADAMTS6 variant 1, C-terminal region starting at the 1st TSR domain, residues 558-1117; The text calls it monomeric; also called C-terminal ADAMTS6; C-terminal fragment of ADAMTS6; source: 293-EBNA cells (pCEP-pu/AC7), purified (IMAC, 0.5 M NaCl)
T1 sequence (looked up): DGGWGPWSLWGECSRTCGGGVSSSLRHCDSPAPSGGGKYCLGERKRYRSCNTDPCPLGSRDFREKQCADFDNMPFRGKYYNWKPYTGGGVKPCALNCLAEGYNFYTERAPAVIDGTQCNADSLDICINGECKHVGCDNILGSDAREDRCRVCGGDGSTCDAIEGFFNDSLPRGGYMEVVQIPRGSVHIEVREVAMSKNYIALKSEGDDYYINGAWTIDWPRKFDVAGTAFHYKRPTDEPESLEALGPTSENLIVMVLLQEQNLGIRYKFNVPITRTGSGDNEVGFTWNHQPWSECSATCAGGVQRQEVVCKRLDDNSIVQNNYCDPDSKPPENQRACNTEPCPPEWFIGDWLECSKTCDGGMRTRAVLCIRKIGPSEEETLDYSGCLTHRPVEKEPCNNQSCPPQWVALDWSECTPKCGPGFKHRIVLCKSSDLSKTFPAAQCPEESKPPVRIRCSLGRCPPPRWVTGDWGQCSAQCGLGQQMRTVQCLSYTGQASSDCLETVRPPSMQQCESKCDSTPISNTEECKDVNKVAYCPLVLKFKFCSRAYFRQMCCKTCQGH

[2] = target: T2, ADAMTS10 C-terminal region (human, UniProt Q9H324 547-1103); test: as above; details: both partners purified
T2 construct: human ADAMTS10 variant 1, C-terminal region starting at the 1st TSR domain, residues 547-1103; also called C-terminal ADAMTS10; source: 293-EBNA cells (pCEP-pu/AC7), purified (IMAC, 0.5 M NaCl)
T2 sequence (looked up): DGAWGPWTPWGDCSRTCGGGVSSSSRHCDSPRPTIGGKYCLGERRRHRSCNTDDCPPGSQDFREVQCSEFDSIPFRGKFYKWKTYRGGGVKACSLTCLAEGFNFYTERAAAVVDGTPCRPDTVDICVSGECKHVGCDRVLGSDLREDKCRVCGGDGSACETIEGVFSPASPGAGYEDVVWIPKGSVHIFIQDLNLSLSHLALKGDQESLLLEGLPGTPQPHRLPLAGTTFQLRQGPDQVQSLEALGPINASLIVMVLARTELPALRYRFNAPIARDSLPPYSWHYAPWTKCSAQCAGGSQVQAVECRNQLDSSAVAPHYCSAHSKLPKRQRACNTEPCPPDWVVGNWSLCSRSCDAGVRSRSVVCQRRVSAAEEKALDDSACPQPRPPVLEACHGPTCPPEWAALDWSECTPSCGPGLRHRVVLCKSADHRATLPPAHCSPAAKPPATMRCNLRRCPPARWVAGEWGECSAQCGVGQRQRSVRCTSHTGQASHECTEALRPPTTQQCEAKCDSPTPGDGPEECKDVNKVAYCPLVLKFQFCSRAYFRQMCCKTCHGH

[3] = target: the molecule itself; test: SDS-PAGE and western blot (SDS-resistant dimer); purified syndecan-4 ectodomain treated with heparinases I, II, III; anti-syndecan-4 blot; with or without ADAMTS6 overnight at 37 °C
[4] = target: T1, ADAMTS6 C-terminal region; test: SPR; Biacore; ADAMTS protein (full-length or C-terminal region) immobilised by amine coupling on CM5 (~3000 RU); analyte injected at 30 ul/min; 10 mM HEPES pH 7.4, 0.1 M NaCl, 0.5 mM CaCl2, 0.005% P20; 1:1 kinetics or equilibrium analysis; details: both partners purified

Kd [1]: 12.9 ± 4 nM
Kd [2]: 14 ± 1.1 nM
B1: syndecan-4 ectodomain (domain or fragment, human (cloned from ARPE-19A RNA), UniProt P31431 19-143, looked up)
chain: ESIRETEVIDPQDLLEGRYFSGALPDDEDVVGPGQESDDFELSGSGDLDDLEDSMIGPEVVHPLVPLDNHIPERAGSGSQVPTEPKKLEENEVIPKRISPVEESEDVSNKVSMSSTVQGSNIFER
modifications: the recombinant protein is modified with heparin chains
notes: syndecan-4 ectodomain cloned from RNA of ARPE-19A cells, residues 19-143 (ESI....IFE); Carries heparan sulphate chains in the SPR; also called Syn4 EC; syndecan-4 extracellular domain; source: 293-EBNA cells (pCEP-pu/AC7), purified (IMAC, size-exclusion chromatography)
binding result [3]: binds

Kd [4]: 2.4 ± 1.2 nM
B2: fibrillin-1 Ex6–11 fragment (domain or fragment)
chain: not shown
notes: human fibrillin-1, domains encoded by exons 6-11; source: 293-EBNA cells (pCEP-pu/AC7), purified (IMAC, size-exclusion chromatography)
